Five proteins from article PMC5636114 (PLoS ONE, 2017) can be followed below.

Data set [1] concerns the molecule itself. Description: AUC; sedimentation velocity (42,000 rpm) and equilibrium, 20 C, 20 mM Tris (pH 8.5), 250 mM NaCl, 5 mM DTT (low-salt condition), 0.05 to 1 mg/ml (complex also 8 mg/ml); global fit by SEDPHAT: monomer-dimer self-association (dimer to monomers) or A + B <-> AB hetero-association.
Data set [2] concerns the molecule itself. Description: SEC; Superose 12 analytical gel filtration of nickel-purified protein, 20 mM Tris (pH 7.5), 250 mM NaCl, 5 mM DTT, 0.5 mL/min; migration compared with the C54S/C83A control.

Changes are numbered by the printed parent chain. Names and notes keep the numbering of the source.

B1: FLASH NTD C54S/C83A/N101A/L104A/N108A, C-terminally hexahistidine-tagged (domain or fragment, human, UniProt Q9UKL3 51-137, looked up)
chain: SRNSLDLYEEILTEEGTAKEATYNDLQVEYGKAQLQMKELMKKFKEIQTQAFSAINEAQSLKKNISALIKTARVEINRKDEEISNLH
notes: FLASH N-terminal domain, human, residues 51-137, C54S/C83A/N101A/L104A/N108A; also called N101A/L104A/N108A mutant
As to B1, the “stoichiometry N” value in data set [1] was roughly 3.

B2: FLASH NTD C54S/C83A/R128A/K129A/D130A, C-terminally hexahistidine-tagged (domain or fragment, human, UniProt Q9UKL3 51-137, looked up)
chain: B1 chain with A51N, A54L, A58N, R78A, K79A, D80A
notes: also called R128A/K129A/D130A mutant
B2: the binding result in data set [2] is “binds”.

B3: FLASH NTD C54S/C83A/L118A/I119A, C-terminally hexahistidine-tagged (domain or fragment, human, UniProt Q9UKL3 51-137, looked up)
chain: B1 chain with A51N, A54L, A58N, L68A, I69A
notes: FLASH N-terminal domain, human, residues 51-137, L118A/I119A in the background of C54S/C83A; also called FLASH NTD L118A/I119A mutant
For the protein B3, the binding result in data set [2] is recorded as “binds”.

B4: FLASH NTD C54S/C83A/K88A/K92A/K95A, C-terminally hexahistidine-tagged (domain or fragment, human, UniProt Q9UKL3 51-137, looked up)
chain: B1 chain with K38A, K42A, K45A, A51N, A54L, A58N
notes: also called K88A/K92A/K95A mutant
Regarding B4, the binding result in data set [2] was “binds”.

B5: FLASH NTD C54S/C83A/Y73A/L76A/Y80A, C-terminally hexahistidine-tagged (domain or fragment, human, UniProt Q9UKL3 51-137, looked up)
chain: B1 chain with Y23A, L26A, Y30A, A51N, A54L, A58N
notes: also called Y73A/L76A/Y80A mutant
In the case of B5, in data set [2], the binding result was “binds”.
